{
  "source": "patent US7521540B2",
  "about": "“CYR61 compositions and methods” (Munin Corporation, priority 1996, dated 2009)",
  "key": {"[1]": {"system": "1064SK primary human foreskin fibroblasts", "assay": "Fibroblast adhesion assay (methylene blue, A620)", "type": "cell-based", "conditions": "for support of 1064SK fibroblast adhesion: protein coated on wells; for inhibition by anti-α6 antibody of binding mediated by the coated protein: anti-α6 20 μg/ml", "method": "The ability of Cyr61 to mediate cell adhesion in normal fibroblasts was investigated. Microtiter wells were coated with purified recombinant Cyr61 protein, and 1064SK primary human foreskin fibroblasts were allowed to adhere under serum-free conditions. […] 50 μl cell suspensions were plated on microtiter wells coated with varying concentrations (0.5-5.0 μg/ml) of Cyr61 protein. After incubation at 37° C. for 30 minutes, adherent cells were fixed and stained with methylene blue.\nIn another experiment, microtiter wells were coated with either BSA, Cyr61 (2 μg/ml), or vitronectin (VN; 0.5 μg/ml) and blocked with affinity-purified anti-Cyr61 antibodies for one hour at 37° C. before 1064SK cells were plated.\nThe effects of divalent cations in cell adhesion to Cyr61 was also investigated. […] Data are means from triplicate determinations. […] Inhibition by Ca^2+ is characteristic of adhesion through some members of the β1 family of integrins, including receptors that bind type I collagen, laminin, and vitronectin (integrins α2β1, α6β1, and αVβ1) in fibroblasts, as well as the lymphocyte-specific integrin αLβ2.\nThe effects of RGD peptides on Cyr61-mediated fibroblast binding was tested by plating cells in wells coated with Cyr61 (2 μg/ml). Type I collagen (2 μg/ml) or vitronectin (0.5 μg/ml), 2 mM GRGDSP or GRGESP peptide was then added.\nCells were also pre-incubated with 40 μg/ml monoclonal antibodies against the integrin α5 or the integrin αV subunits at room temperature for 30 minutes, then plated on wells coated with Cyr61 (2 μg/ml), vitronectin (0.5 μg/ml) or fibronectin (FN, 1 μg/ml). […] The data are means, representative of three experiments.\nThe 1064 SK cells were also analyzed using the monoclonal antibody JBIA, which binds the β1 integrin subunit. Cells were pre-incubated with the antibody (50 μg/ml) before plating on microtiter wells coated with Cyr61 (2 μg/ml), Type I collagen (2 μg/ml), or vitronectin (0.5 μg/ml). […] Data are means, representative of three experiments.\nTo identify the specific β1 integrin that mediates fibroblast adhesion to Cyr61, the inhibitory effects of function-blocking monoclonal antibodies were tested against various integrin α subunits. […] The data are means, representative of at least three experiments."}, "[2]": {"system": "primary human foreskin fibroblasts", "assay": "Cyr61-regulated gene expression (multi-gene blot, Northern)", "type": "cell-based", "method": "Purified, soluble, recombinant Cyr61 protein was added to cultures of primary human foreskin fibroblasts for 24 hours. From these cells, mRNA was isolated for preparation of probes to hybridize to a multi-gene blot (Clontech Atlas Human Array 1.2 cat no. 7850-1) containing about 650 genes. The levels of expression of these genes in Cyr61-treated cells were compared to that of control cells. […] These findings have been confirmed by Northern blot analysis showing increases or decreases of the mRNAs in question in Cyr61-treated cells. A time course of expression changes has been established. In particular, by 6 hours after its addition, Cyr61 has induced expression of VEGF-A mRNA and the induction is still evident at 12 and 24 hours post-addition. Also at 12 and 24 hours post-addition, Cyr61 has induced expression of VEGF-A polypeptide. With respect to VEGF-C, induction of mRNA is clearly evident 12 hours after addition of Cyr61 and the induction persists at least through 24 hours post-addition. Cyr61 is expected to induce the expression of VEGF-C polypeptide with similar kinetics."}, "[3]": {"system": "1064SK human skin fibroblasts", "assay": "Human skin fibroblast migration", "type": "cell-based", "conditions": "1064SK cells"}, "NIH 3T3 fibroblasts": {"system": "NIH 3T3 fibroblasts", "assay": "Thymidine incorporation (mitogen potentiation), NIH 3T3", "type": "cell-based, mouse", "conditions": "bFGF 15 ng/ml or PDGF-BB 30 ng/ml", "method": "More specifically, NIH 3T3 fibroblast cells were plated on 24-well plates at 3×10^4 cells/well and grown in DMEM with 10% fetal bovine serum (Intergen Co., Purchase, N.Y.) for 3-4 days and incubated with medium containing 0.2% FBS for the following 48 hours. The following compounds, at the parenthetically noted final concentrations, were then added to the plated cells in fresh DMEM containing 0.2% fbs and [^3H]-thymidine (1 μCi/ml final concentration; ICN Biomedicals, Inc., Costa Mesa, Calif.): bFGF (15 ng/ml), PDGF-BB (30 ng/ml), and murine Cyr61 (0.5-5 μg/ml). These compounds were added to individual plates according to the following pattern: 1) no supplementation; 2) murine Cyr61; 3) bFGF; 4) murine Cyr61 and bFGF; 5) PDGF-BB; and 6) murine Cyr61 and PDGF. After 18-20 hours of incubation, cells were washed with PBS and fixed with 10% trichloroacetic acid. DNA was dissolved in 0.1 N NaOH and thymidine incorporation was determined. […] Without any supplements, 3T3 cells incorporated approximately 1.8×10^4 cpm of [^3H]-thymidine, in the presence or absence of Cyr61. Cells exposed to bFGF alone incorporated about 1.2×10^5 cpm; cells contacting bFGF and murine Cyr61 incorporated 2×10^5 cpm. Cells receiving PDGF-BB incorporated about 1.2×10^5 cpm; and cells exposed to PDGF-BB and murine Cyr61 incorporated approximately 2.4×10^5 cpm.\nDNA synthesis for HUVE cells and NIH 3T3 fibroblasts was measured by thymidine incorporation as described previously (Kireeva et al., [1996]) with minor modifications. HUVE cells were grown in 24-well plates to a subconfluent state, serum-starved for 24 hours and treated with F12K medium containing 10% fetal bovine serum (FBS), 1 μCi/ml [^3H]-thymidine and 10 ng/ml basic Fibroblast Growth Factor (bFGF) (Gibco-BRL, Inc.) with various concentrations of Cyr61 and Fisp12 as indicated. NIH 3T3 fibroblasts were grown to subconlfluence, serum-starved for 48 hours, and treated with Minimal Essential Medium (MEM) containing 0.5% FBS, 1 μCi/ml [^3H]-thymidine, bFGF and various concentrations of Cyr61 or Fisp12. Thymidine incorporation into the trichloroacetic acid-insoluble fraction was determined after 24 hour incubation. Logarithmically grown mink lung epithelial cells (Mv1lu, CCL64) were treated with various concentrations of TGF-β1 (Gibco-BRL) and 2 μg/ml of Cyr61 or Fisp12 for 18 hours; [^3H]-thymidine was then added to 1 μCi/ml for 2 hours. Thymidine incorporation was determnined as described above."}, "[4]": {"assay": "Heparin binding assay (salt elution from heparin-Sepharose/agarose)"}},
  "data": [
    {"molecule": "Cyr61 NT: Human Cyr61 fragment with domains I, II and III, lacking heparan binding domain IV (protein) TCPAACHCPLEAPKCAPGVGLVRDGCGCCKVCAKQLNEDCSKTQPCDHTKGLECNFGASSTALKGICRAQSEGRPCEYNSRIYQNGESFQPNCQHQCTCIDGAVGCIPLCPQELSLPNLGCPNPRLVKVTGQCCEEWVCDEDSIKDPMEDQDGLLGKELGFDASEVELTRNNELIAVGKGRSLKRLPVFGMEPRILYNPLQGQKCIVQTTSWSQCSKTCGTGISTRVTNDNPECRLVKETRICEVRPCGQPVYSSLK", "values": [
      {"measurement": "support of 1064SK fibroblast adhesion", "setting": "[1]", "result": "did not support fibroblast adhesion"},
      {"measurement": "induction of VEGF, MMP1, MMP3 etc.", "setting": "[2]", "result": "do not induce the expression of the above-referenced genes"},
      {"measurement": "migration of human fibroblasts", "setting": "[3]", "result": "did support fibroblast migration"},
      {"measurement": "migration of human fibroblasts", "setting": "[3]; listed as human Cyr61 NT", "result": "induced 1064SK cell migration"}
    ]},
    {"molecule": "PDGF-BB: Platelet-Derived Growth Factor, BB isoform (protein, UniProt P01127 82-190, looked up, BB homodimer, Platelet-Derived Growth Factor, BB isoform) Platelet-derived growth …: SLGSLTIAEPAMIAECKTRTEVFEISRRLIDRTNANFLVWPPCVEVQRCSGCCNNRNVQCRPTQVQLRPVQVRKIEIVRKKPIFKKATVTLEDHLACKCETVAAARPVT", "values": [
      {"measurement": "[3H]-thymidine incorporation, growth factor alone", "setting": "NIH 3T3 fibroblasts", "result": "about 1.2×10^5 cpm"}
    ]},
    {"molecule": "heparatinase: Enzyme used to pretreat cells (heparinase I, 2 U/ml) (protein, UniProt Q05819 22-384, looked up) Heparin lyase I: QQKKSGNIPYRVNVQADSAKQKAIIDNKWVAVGINKPYALQYDDKLRFNGKPSYRFELKAEDNSLEGYAAGETKGRTELSYSYATTNDFKKFPPSVYQNAQKLKTVYHYGKGICEQGSSRSYTFSVYIPSSFPDNATTIFAQWHGAPSRTLVATPEGEIKTLSIEEFLALYDRMIFKKNIAHDKVEKKDKDGKITYVAGKPNGWKVEQGGYPTLAFGFSKGYFYIKANSDRQWLTDKADRNNANPENSEVMKPYSSEYKTSTIAYKMPFAQFPKDCWITFDVAIDWTKYGKEANTILKPGKLDVMMTYTKNKKPQKAHIVNQQEILIGRNDDDGYYFKFGIYRVGNSTVPVTYNLSGYSETAR", "values": [
      {"measurement": "1064SK adhesion to Cyr61-coated wells with agent", "setting": "[1]; Cyr61 2 μg/ml, agent at the level stated in the block, Mg2+ 5.0 mM after EDTA", "result": 0.13, "unit": "A620"},
      {"measurement": "1064SK adhesion to fibronectin-coated wells with agent", "setting": "[1]; fibronectin 1 μg/ml", "result": 0.66, "unit": "A620"},
      {"measurement": "1064SK adhesion to vitronectin-coated wells with agent", "setting": "[1]; vitronectin 0.5 μg/ml", "result": 0.63, "unit": "A620"}
    ]},
    {"molecule": "decorin: Decorin from Sigma (protein, UniProt P21793 31-360, looked up) Decorin: DEASGIGPEEHFPEVPEIEPMGPVCPFRCQCHLRVVQCSDLGLEKVPKDLPPDTALLDLQNNKITEIKDGDFKNLKNLHTLILINNKISKISPGAFAPLVKLERLYLSKNQLKELPEKMPKTLQELRVHENEITKVRKSVFNGLNQMIVVELGTNPLKSSGIENGAFQGMKKLSYIRIADTNITTIPQGLPPSLTELHLDGNKITKVDAASLKGLNNLAKLGLSFNSISAVDNGSLANTPHLRELHLNNNKLVKVPGGLADHKYIQVVYLHNNNISAIGSNDFCPPGYNTKKASYSGVSLFSNPVQYWEIQPSTFRCVYVRAAVQLGNYK", "values": [
      {"measurement": "concentration that inhibited cell adhesion to Cyr61", "setting": "[1]; in cell suspension", "result": 10, "unit": "µg/mL"}
    ]},
    {"molecule": "H2: Cyr61 variant, heparin-binding motif at residues 305-310 replaced with alanine (protein) TCPAACHCPLEAPKCAPGVGLVRDGCGCCKVCAKQLNEDCSKTQPCDHTKGLECNFGASSTALKGICRAQSEGRPCEYNSRIYQNGESFQPNCKHQCTCIDGAVGCIPLCPQELSLPNLGCPNPRLVKVSGQCCEEWVCDEDSIKDSLDDQDDLLGLDASEVELTRNNELIAIGKGSSLKRLPVFGTEPRVLFNPLHAHGQKCIVQTTSWSQCSKSCGTGISTRVTNDNPECRLVKETRICEVRPCGQPVYSSLKKGKKCSKTKKSPEPVRFTYAGCSSVVAAYAPYCGSCVDGRCCTPLQTRTVKMRFRCEDGEMFSKNVMMIQSCKCNYNCPHPNEASFRLYSLFNDIHKFRD", "values": [
      {"measurement": "inhibition by anti-α6 antibody of binding mediated by the coated protein", "setting": "[1]", "result": 70, "unit": "%"},
      {"measurement": "support of 1064SK fibroblast adhesion", "setting": "[1]", "result": "able to support fibroblast adhesion"},
      {"measurement": "heparin binding", "setting": "[4]", "result": "somewhat decreased heparin-binding affinities"}
    ]},
    {"molecule": "H1: Cyr61 variant, lysine/arginine of heparin-binding motif at residues 280-290 replaced with alanine (protein) TCPAACHCPLEAPKCAPGVGLVRDGCGCCKVCAKQLNEDCSKTQPCDHTKGLECNFGASSTALKGICRAQSEGRPCEYNSRIYQNGESFQPNCKHQCTCIDGAVGCIPLCPQELSLPNLGCPNPRLVKVSGQCCEEWVCDEDSIKDSLDDQDDLLGLDASEVELTRNNELIAIGKGSSLKRLPVFGTEPRVLFNPLHAHGQKCIVQTTSWSQCSKSCGTGISTRVTNDNPECRLVKETRICEVRPCGQPVYSSLKKAGAACSATAKPEPVRFTYAGCSSVKKYRPKYCGSCVDGRCCTPLQTRTVKMRFRCEDGEMFSKNVMMIQSCKCNYNCPHPNEASFRLYSLFNDIHKFRD", "values": [
      {"measurement": "inhibition by anti-α6 antibody of binding mediated by the coated protein", "setting": "[1]", "result": 69, "unit": "%"},
      {"measurement": "support of 1064SK fibroblast adhesion", "setting": "[1]", "result": "able to support fibroblast adhesion"},
      {"measurement": "heparin binding", "setting": "[4]", "result": "somewhat decreased heparin-binding affinities"}
    ]}
  ]
}
